Patent publication US20150344570A1 (published 2015)

T1: FcgRIIb (human, UniProt P31994 43-217)
T1 construct: extracellular domain; also called FcγRIIb; 2b; not shown: His tag attached to the C terminus
T1 sequence (looked up): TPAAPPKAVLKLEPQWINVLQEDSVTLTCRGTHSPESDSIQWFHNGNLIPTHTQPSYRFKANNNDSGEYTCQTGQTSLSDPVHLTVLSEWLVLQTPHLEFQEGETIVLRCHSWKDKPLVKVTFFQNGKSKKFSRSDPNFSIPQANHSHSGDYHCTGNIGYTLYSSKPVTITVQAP

T2: FcgRIIaH (human, UniProt P12318 34-217)
T2 construct: extracellular domain; also called FcγRIIa H; FcgRIIa type H; not shown: His tag attached to the C terminus
T2 sequence (looked up): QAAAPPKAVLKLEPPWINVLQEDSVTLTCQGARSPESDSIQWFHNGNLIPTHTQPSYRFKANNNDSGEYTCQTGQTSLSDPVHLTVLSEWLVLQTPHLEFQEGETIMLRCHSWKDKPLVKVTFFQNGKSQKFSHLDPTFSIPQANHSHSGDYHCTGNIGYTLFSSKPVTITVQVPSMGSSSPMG

T3: FcgRIIaR (human, UniProt P12318 34-217)
T3 construct: extracellular domain; also called FcγRIIa R; FcgRIIa type R; not shown: His tag attached to the C terminus
T3 sequence (looked up): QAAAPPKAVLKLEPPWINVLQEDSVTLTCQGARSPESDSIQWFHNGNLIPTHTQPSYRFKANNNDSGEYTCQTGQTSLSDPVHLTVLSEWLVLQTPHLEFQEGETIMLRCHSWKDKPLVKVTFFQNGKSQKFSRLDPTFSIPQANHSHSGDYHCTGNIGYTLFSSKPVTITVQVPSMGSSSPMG


Tests used:
Experiment in all cases: SPR (Biacore); KD of H240-Kn033/H240-Hl033/L73-k0 divided by KD of this variant
FcgRIIIaV = molecular target: T4, FcgRIIIaV (human, UniProt P08637 17-208)
T4 construct: extracellular domain; also called FcγRIIIa V; 3aV; not shown: His tag attached to the C terminus
Experimental: (§1) H240-Kn204/H240-Hl211/L73-k0 and H240-Kn205/H240-Hl212/L73-k0 were prepared according to the method of Reference Example 1, by combining H240-Kn204 as one of the H chains and L73-k0 as the L chains with H240-Hl211 as the other H chain, and by combining H240-Kn205 as one of the H chains and L73-k0 as the L chains with H240-Hl212 as the other H chain, and then expressing them. The binding of the prepared variants to FcgRIa, FcgRIIaR, FcgRIIaH, FcgRIIb, FcgRIIIaF, and FcgRIIIaV was measured according to the method of Reference Example 8.
(§2) “fold 2aR”, “fold 2aH”, “fold 2b”, “fold 3aF”, and “fold 3aV” show the relative binding activity of each variant to FcgRIIaR, FcgRIIaH, FcgRIIb, FcgRIIIaF, and FcgRIIIaV, respectively, when the binding activity of H240-Kn033/H240-Hl033/L73-k0, a variant produced by introducing only alterations that promote formation of a heterodimerized antibody into a native IgG1, is defined as 1. Specifically, they are values obtained by dividing the KD value of H240-Kn033/H240-Hl033/L73-k0 for each FcgR by the KD value of an individual variant for each FcgR.
(§3) Analysis of interaction between objective antibody and the FcγR was carried out using Biacore T100 (GE Healthcare), Biacore T200, Biacore A100, and Biacore 4000. HBS-EP+ (GE Healthcare) was used as the running buffer, and the measurement temperature was set to 25° C. Chips produced by immobilizing the antigen peptide by the amine coupling method to a Series S sensor Chip CM5 (GE Healthcare), chips produced by allowing preliminarily biotinylated antigen peptides to interact with and immobilize onto a Series S Sensor Chip SA (certified) (GE Healthcare), chips produced by immobilizing Protein L (ACTIGEN, BioVision) to Series S Sencor Chip CM5 (GE Healthcare), or chips produced by immobilizing Protein A/G (Thermo Scientific) to Series S Sencor Chip CM5 (GE Healthcare) were used. Antibodies of interest were captured onto these chips, and allowed to interact to each FcγR diluted with running buffer.

FcgRIIb = molecular target: T1, FcgRIIb
Experimental: as §1, §2, §3

FcgRIIaH = molecular target: T2, FcgRIIaH
Experimental: as §1, §2, §3

FcgRIIaR = molecular target: T3, FcgRIIaR
Experimental: as §1, §2, §3

FcgRIIIaF = molecular target: T5, FcgRIIIaF (human, UniProt P08637 17-208)
T5 construct: extracellular domain; also called FcγRIIIa F; 3aF; not shown: His tag attached to the C terminus
Experimental: as §1, §2, §3

T5 sequence (P08637 17-208): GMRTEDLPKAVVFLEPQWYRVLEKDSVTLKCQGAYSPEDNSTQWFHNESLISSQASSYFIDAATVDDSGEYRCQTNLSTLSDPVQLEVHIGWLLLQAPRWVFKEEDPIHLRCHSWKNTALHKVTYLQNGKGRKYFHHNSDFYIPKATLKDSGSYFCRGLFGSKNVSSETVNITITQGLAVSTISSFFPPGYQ
T4 sequence (P08637 17-208 F176V limits assumed): as the sequence (P08637 17-208) above, with F160V counted along it

| fold 3aV (FcgRIIIaV) | fold 2b (FcgRIIb) | fold 2aH (FcgRIIaH) | fold 2aR (FcgRIIaR) | fold 3aF (FcgRIIIaF) | Binder |
| --- | --- | --- | --- | --- | --- |
| 88.9 fold | 0.5 fold | 3.7 fold | 1.2 fold | 193 fold | H240-Kn198/H240-Hl076/L73-k0 (antibody, human IgG1, kappa, Anti-epiregulin heterodimerized IgG1, knobs-into-holes) heavy 1: QDQLVQSGAEVKKPGASVKVSCKASGFNIKDTYIQWVRQAPGQGLEWMGRIDPLRKQTKYREKFEGRVTITADTSTNTAYMELSSLRSEDTAVYYCVRSGREFDYWGQGTLVTVSSASTKGPSVFPLAPSSKSTSGGTAALGCLVKDYFPEPVTVSWNSGALTSGVHTFPAVLQSSGLYSLSSVVTVPSSSLGTQTYICNVNHKPSNTKVDKKVEPKSCDKTHTCPPCPAPELQWGPMVFLFPPKPKDTLMISRTPEVTCVVVDVSDEEPEVKFNWYVDGVEVHNAKTKPREEQYNATYRVVSVLTVLHQDWLNGKEYKCKVSNKALPAPIEKTISKAKGQPREPQVCTLPPSRDELTKNQVSLWCLVKGFYPSDIAVEWESNGQPENNYKTTPPVLDSDGSFFLYSKLTVDKSRWQQGNVFSCSVMHEALHNHYTQKSLSLSP heavy 2: QDQLVQSGAEVKKPGASVKVSCKASGFNIKDTYIQWVRQAPGQGLEWMGRIDPLRKQTKYREKFEGRVTITADTSTNTAYMELSSLRSEDTAVYYCVRSGREFDYWGQGTLVTVSSASTKGPSVFPLAPSSKSTSGGTAALGCLVKDYFPEPVTVSWNSGALTSGVHTFPAVLQSSGLYSLSSVVTVPSSSLGTQTYICNVNHKPSNTKVDKKVEPKSCDKTHTCPPCPAPELLGGPSVFLFPPKPKDTLMISRTPEVTCVVVDVSHEEPEVKFNWYVDGVEVHNAKTKPREEQYNSTYRVVSVLTVLHQDWLNGKEYKCKVSNDALPMPIEETISKAKGQPREPQVYTLPPSRCELTKNQVSLSCAVKGFYPSDIAVEWESNGQPENNYKTTPPVLDSDGSFFLVSKLTVDKSRWQQGNVFSCSVMHEALHNHYTQKSLSLSP light: DIQMTQSPSSLSASVGDRVTITCRASQDIHKYIAWYQQKPGQAPRLLIQYTSTLQPGVPSRFSGSGSGTDYTFTISSLQPEDIATYYCLQYEQLRTFGGGTKVEIKRTVAAPSVFIFPPSDEQLKSGTASVVCLLNNFYPREAKVQWKVDNALQSGNSQESVTEQDSKDSTYSLSSTLTLSKADYEKHKVYACEVTHQGLSSPVTKSFNRGEC |
| 81.4 fold | 0.5 fold | 2.3 fold | 0.9 fold | 121 fold | H240-Kn200/H240-Hl076/L73-k0 (antibody, human IgG1, kappa, Anti-epiregulin heterodimerized IgG1, knobs-into-holes) heavy 1: QDQLVQSGAEVKKPGASVKVSCKASGFNIKDTYIQWVRQAPGQGLEWMGRIDPLRKQTKYREKFEGRVTITADTSTNTAYMELSSLRSEDTAVYYCVRSGREFDYWGQGTLVTVSSASTKGPSVFPLAPSSKSTSGGTAALGCLVKDYFPEPVTVSWNSGALTSGVHTFPAVLQSSGLYSLSSVVTVPSSSLGTQTYICNVNHKPSNTKVDKKVEPKSCDKTHTCPPCPAPESQWGPMVFLFPPKPKDTLMISRTPEVTCVVVDVSDEEPEVKFNWYVDGVEVHNAKTKPREEQYNATYRVVSVLTVLHQDWLNGKEYKCKVSNKALPAPIEKTISKAKGQPREPQVCTLPPSRDELTKNQVSLWCLVKGFYPSDIAVEWESNGQPENNYKTTPPVLDSDGSFFLYSKLTVDKSRWQQGNVFSCSVMHEALHNHYTQKSLSLSP heavy 2: QDQLVQSGAEVKKPGASVKVSCKASGFNIKDTYIQWVRQAPGQGLEWMGRIDPLRKQTKYREKFEGRVTITADTSTNTAYMELSSLRSEDTAVYYCVRSGREFDYWGQGTLVTVSSASTKGPSVFPLAPSSKSTSGGTAALGCLVKDYFPEPVTVSWNSGALTSGVHTFPAVLQSSGLYSLSSVVTVPSSSLGTQTYICNVNHKPSNTKVDKKVEPKSCDKTHTCPPCPAPELLGGPSVFLFPPKPKDTLMISRTPEVTCVVVDVSHEEPEVKFNWYVDGVEVHNAKTKPREEQYNSTYRVVSVLTVLHQDWLNGKEYKCKVSNDALPMPIEETISKAKGQPREPQVYTLPPSRCELTKNQVSLSCAVKGFYPSDIAVEWESNGQPENNYKTTPPVLDSDGSFFLVSKLTVDKSRWQQGNVFSCSVMHEALHNHYTQKSLSLSP light: DIQMTQSPSSLSASVGDRVTITCRASQDIHKYIAWYQQKPGQAPRLLIQYTSTLQPGVPSRFSGSGSGTDYTFTISSLQPEDIATYYCLQYEQLRTFGGGTKVEIKRTVAAPSVFIFPPSDEQLKSGTASVVCLLNNFYPREAKVQWKVDNALQSGNSQESVTEQDSKDSTYSLSSTLTLSKADYEKHKVYACEVTHQGLSSPVTKSFNRGEC |
| 117 fold | 25.4 fold | 19.3 fold | 37 fold | 126 fold | H240-Kn199/H240-Hl068/L73-k0 (antibody, human IgG1, kappa, Anti-epiregulin heterodimerized IgG1, knobs-into-holes) heavy 1: QDQLVQSGAEVKKPGASVKVSCKASGFNIKDTYIQWVRQAPGQGLEWMGRIDPLRKQTKYREKFEGRVTITADTSTNTAYMELSSLRSEDTAVYYCVRSGREFDYWGQGTLVTVSSASTKGPSVFPLAPSSKSTSGGTAALGCLVKDYFPEPVTVSWNSGALTSGVHTFPAVLQSSGLYSLSSVVTVPSSSLGTQTYICNVNHKPSNTKVDKKVEPKSCDKTHTCPPCPAPELYWGPMVFLFPPKPKDTLMISRTPEVTCVVVDVSDEDPEVKFNWYVDGVEVHNAKTKPREEQYNATYRVVSVLTVLHQDWLNGKEYKCKVSNKDLPAPIEKTISKAKGQPREPQVCTLPPSRDELTKNQVSLWCLVKGFYPSDIAVEWESNGQPENNYKTTPPVLDSDGSFFLYSKLTVDKSRWQQGNVFSCSVMHEALHNHYTQKSLSLSP heavy 2: QDQLVQSGAEVKKPGASVKVSCKASGFNIKDTYIQWVRQAPGQGLEWMGRIDPLRKQTKYREKFEGRVTITADTSTNTAYMELSSLRSEDTAVYYCVRSGREFDYWGQGTLVTVSSASTKGPSVFPLAPSSKSTSGGTAALGCLVKDYFPEPVTVSWNSGALTSGVHTFPAVLQSSGLYSLSSVVTVPSSSLGTQTYICNVNHKPSNTKVDKKVEPKSCDKTHTCPPCPAPELLGGPSVFLFPPKPKDTLMISRTPEVTCVVVDVSHEEPEVKFNWYVDGVEVHNAKTKPREEQYNSTYRVVSVLTVLHQDWLNGKEYKCKVSNDALPKPIEETISKAKGQPREPQVYTLPPSRCELTKNQVSLSCAVKGFYPSDIAVEWESNGQPENNYKTTPPVLDSDGSFFLVSKLTVDKSRWQQGNVFSCSVMHEALHNHYTQKSLSLSP light: DIQMTQSPSSLSASVGDRVTITCRASQDIHKYIAWYQQKPGQAPRLLIQYTSTLQPGVPSRFSGSGSGTDYTFTISSLQPEDIATYYCLQYEQLRTFGGGTKVEIKRTVAAPSVFIFPPSDEQLKSGTASVVCLLNNFYPREAKVQWKVDNALQSGNSQESVTEQDSKDSTYSLSSTLTLSKADYEKHKVYACEVTHQGLSSPVTKSFNRGEC |
